Reference: paper PMC8885657, “HPV infection alters vaginal microbiome through down-regulating host mucosal innate peptides used by Lactobacilli as amino acid sources” (Nature Communications, 2022)

Legend:
[1] = tested on: E-cadherin (CDH1); test: Reactivation of hypermethylated CDH1 gene (Western blot); format: cell-based, human; conditions: 5 µM
Description: Immortalized keratinocytes (1.5 × 10^5 cells per well of a six-well plate) were transfected with ON-TARGETplus SMARTpool siRNAs targeting p65, β-catenin or c-Myc (Dharmacon, Lafayette, CO, USA) using Oligofectamine Transfection Reagent (Invitrogen). Oligos targeting the firefly luciferase gene (siGL2) were used as control. For each experiment, siRNA (40 nM) and 6 µl of Oligofectamine were diluted in 1 ml of Optimem (Invitrogen). The cells were incubated with the mixture for 4 h at 37 °C. Twenty-four hours after transfection, cells were either harvested or stimulated with LPS (2 µg/ml) or TNFα (20 ng/ml) and experiments were performed. For the chemical inhibition of NF-kB or c-Myc, BAY 11-7082 (5 µM, Sigma Aldrich) or 10058-F4 (40 µM, Selleckchem, Houston, TX, USA) was added to cell cultures before RNA expression analyses. […]
After extraction in 1% SDS buffer (total extraction) containing protease and phosphatase inhibitors (Roche) and quantification (BCA protein assay kit; Pierce, Rockford, IL, USA), twenty micrograms of proteins were separated on 10% SDS-PAGE and transferred to PVDF membranes (Roche). […] The protein bands were detected using an enhanced chemiluminescence system (Westar ECL-Sun, Cyanagen, Bologna, Italy) and finally quantified by densitometry using ImageJ software. […]

[2] = tested on: murine vaginal microbiota; test: 16S-based metagenomics of cervico-vaginal lavage samples; format: in vivo, mouse; conditions: FVB/n mice treated (n=12) or not (n=8), subcutaneous implant 1-2 µg/24h, 12 weeks
Excerpt: FVB/n mice expressing HPV16 under the control of the keratin 14 promoter (K14-HPV16 transgenic mice) were obtained from the National Cancer Institute Mouse Repository. Given that (pre)cancer development within the lower genital tract has been previously shown to be hormone-dependent in this model[75],[76], 6 to 8-week-old female mice (n = 12 per condition) were subcutaneously implanted with a Belma’s E2 implant (E2-M/90, Belma Technologies, Liege, Belgium), allowing reproducible long-term release of 17β-estradiol (1–2 µg/24 h) for 90 days[77]. A similar procedure was performed with control (FVB/n) mice. […]
Mice were randomly distributed in cages and housed under standard conditions [12 h light/12 h dark cycle, ad libitum access to food and water, constant temperature (19–21 °C) and humidity (40–50%)] in the GIGA-Mouse facility platform (University of Liege) during the entire course of the study. […] Seven µl from each samples were spread on a glass slide, fixed/stained using Diff-Quick reagents (Medion Diagnostics, Düdingen, Switzerland) and the estrous cycle stage was determined using established criteria.
DNA was isolated from cervico-vaginal lavage samples using NucleoSpin Tissue kit (Macherey Nagel, Düren, Germany). […] Of note, 7 random nucleotides were added to the 5′ region of forward primer to increase complexity and, therefore, improve sequence read quality. […]

[3] = tested on: Gardnerella vaginalis; test: Antimicrobial assay (surviving colonies, CFU count); format: cell-based; conditions: peptide 1–10 µg/ml, 5 × 10^4 CFU/ml, 10 mM sodium phosphate buffer, 6 h, 37 °C; plated on Columbia Blood agar; n = 5
Description: (§1) Bacterial strains Lactobacillus crispatus DSM 20356, Lactobacillus iners CIP 105923 and Garnerella vaginalis CCUG 43336 were kindly provided by the Department of Clinical Microbiology at University Hospital Center of Liege. Lactobacillus jensenii LMG 6414 was obtained from BCCM/LMG Bacteria Collection (University of Gent, Belgium). Log-phase bacteria were grown on Columbia agar with 5% sheep blood (Becton Dickinson, Franklin Lakes, NJ, USA) at 37 °C in a humidified CO2 atmosphere (Lactobacilli) or in anaerobic jars (G. vaginalis). To analyze the antimicrobial effect of innate peptides expressed by vaginal/cervical mucosa, 5 × 10^4 colony-forming unit (CFU)/ml were mixed with different peptides (concentration range: 1–10 µg/ml) in 10 mM sodium phosphate buffer (SPB) (final volume 100 µl) and incubated for 45 min to 9 h at 37 °C. Where indicated, the peptides were incubated with 2 mM dithiothreitol (DTT) (Invitrogen, Carlsbad, CA, USA) for 30 min at 37 °C before adding the bacteria. In indicated experiments, incubation was carried out in potassium phosphate buffer (KPB) (pH: 7.4, 10 mM). The following peptides were tested: HβD1 (PeptaNova, Sandhausen, Germany), HβD2 (PeptaNova), HβD3 (PeptaNova), HβD4 (PeptaNova), HD-5 (PeptaNova), HD-6 (PeptaNova), elafin (PeptaNova), S100A7 (Abnova, Taipei City, Taiwan) and SLPI (R&D Systems, Minneapolis, MI, USA). Bacterial suspensions were then plated on Columbia Blood agar plates for 24–48 h to determine CFU. High-resolution images for each condition were taken. Colony detection and counts were finally performed using ImageJ software (NIH, Bethesda, MD, USA) and verified by manual counting.

[4] = tested on: Lactobacillus crispatus DSM 20356; test: as above; format: cell-based; conditions: peptide 1–10 µg/ml, 5 × 10^4 CFU/ml, 10 mM sodium phosphate buffer, 6 h, 37 °C; plated on Columbia Blood agar; n = 3
Description: as §1

[5] = tested on: Lactobacillus iners CIP 105923; test: as above; format: cell-based; conditions: peptide 1–10 µg/ml, 5 × 10^4 CFU/ml, 10 mM sodium phosphate buffer, 6 h, 37 °C; plated on Columbia Blood agar; n = 3
Description: as §1

[6] = tested on: Lactobacillus jensenii LMG 6414; test: as above; format: cell-based; conditions: peptide 1–10 µg/ml, 5 × 10^4 CFU/ml, 10 mM sodium phosphate buffer, 6 h, 37 °C; plated on Columbia Blood agar; n = 3
Description: as §1

With `Nc1ncn([C@H]2C[C@H](O)[C@@H](CO)O2)c(=O)n1` [5-aza-deoxycytidine] the “CDH1 (E-cadherin) expression, Western blot” value [1] was “reactivation of silenced CDH1 gene”.

For `C[C@]12CC[C@@H]3c4ccc(O)cc4CC[C@H]3[C@@H]1CC[C@@H]2O` [17β-estradiol], the “composition of murine vaginal microbiota (α- and β-diversity, richness, evenness)” value [2] was “not altered”.

B1: HD-5: epithelial member of the defensin family, host defense peptide (PeptaNova) (peptide, UniProt Q01523 20-94, looked up)
Defensin alpha 5: ESLQERADEATTQKQSGEDNQDLAISFAGNGLSALRTSGSQARATCYCRTGRCATRESLSGVCEISGRLYRLCCR
B1 was tested, and the “effect on bacterial growth/survival (percentage of surviving colonies)” value [3] was “inhibit the growth”, the “effect on bacterial growth/survival (percentage of surviving colonies)” value [4] was “inhibit the growth” and the “effect on bacterial growth/survival (percentage of surviving colonies)” value [5] was “inhibit the growth”. The “effect on bacterial growth/survival (percentage of surviving colonies)” value [6] was “inhibit the growth”.
